Broadly, the stoichiometry N is the number of molecules, sites or subunits per partner or assembly.

Numbering of substitutions follows the chain as printed. Numbers in names are those of the source.

The data set concerns the molecule itself. Briefly: SEC-MALS. Background: Size exclusion chromatography separates by hydrodynamic size, large species first.

B1: mature IL-37 (Lys53 N-terminus) (ligand, human, UniProt Q9NZH6 53-218, looked up)
chain: KNLNPKKFSIHDQDHKVLVLDSGNLIAVPDKNYIRPEIFFALASSLSSASAEKGSPILLGVSKGEFCLYCDKDKGQSHPSLQLKKEKLMKLAAQKESARRPFIFYRAQVGSWNMLESAAHPGWFICTSCNCNEPVGVTDKFENRKHIEFSFQPVCKAEMSPSEVSD
For B1, the “stoichiometry N” value turned out to be 2.

B2: IL-37 R158A (ligand, human, UniProt Q9NZH6 53-218, looked up)
chain: B1 chain with R106A
On to B2, for which the “stoichiometry N” value came out at 2.
